From publication PMC11297306 (Nature Communications, 2024)

Target: EEEV virus-like particles (strain PE6) (eastern equine encephalitis virus, strain PE6)
Assay: BLI

Row | Substance | Kd
1 | VLDLRLA1-Fc fusion protein (from UniProt P98155-1 31-69) | 15.5 µM
2 | VLDLRLBD-Fc fusion protein (from UniProt P98155-1 31-355) | 0.0021 µM
